The Immune Epitope Database (IEDB)

These sequences were tested against HLA-A*68:02 (assay: IEDB peptide-MHC binding, purified MHC/competitive/radioactivity; ≥ and ≤ were set here for values at or beyond the usual limits of such assays). Conditions: source organism: Hepacivirus hominis.
SMGNTLTCYV gave an IC50 of 2430 nM.
With SMMSFSAAL the IC50 was 493 nM.
Sequence TLLGCWSFV has an IC50 of 1780 nM.
With TSISGVLWTV the IC50 was 2.2 nM.

Same assay, conditions: source organism: Influenza A virus
SSLENFRAYV showed an IC50 of 24 nM.
TSFFYRYGFV showed an IC50 of 0.0096 nM.

Same assay, conditions: source organism: Mammarenavirus brazilense
TSLGLLYTV gave an IC50 of 13 nM.

Same assay, conditions: source organism: Mammarenavirus guanaritoense
TLVDLCFWS showed an IC50 of 4880 nM.
TSVDLNAPV gave an IC50 of 0.26 nM.

Same assay, conditions: source organism: Mammarenavirus whitewaterense
Sequence TVIKTLLEV has an IC50 of 2.8 nM.

Same assay, conditions: source organism: SARS-CoV1
SLVKPTVYV gave an IC50 of 145 nM.
In the case of TLDAANHSI, the IC50 is reported as 1020 nM.
Work on TLGVYDYLV yielded an IC50 of 157 nM.
In the case of TLIDFYLCFL, the IC50 is reported as 151 nM.
TLLCVLAALV showed an IC50 of 4390 nM.
For TMADLVYAL, the IC50 was 20 nM.
In the case of TQWSLFFFV, the IC50 is reported as 104 nM.
VIADYNYKL showed an IC50 of 290 nM.

Same assay, conditions: source organism: Vaccinia virus WR
Sequence SLVITYCLVT has an IC50 of 447 nM.
Work on SLVSKHWEL yielded an IC50 of 378 nM.
For SMSQELAELL, the IC50 was 1300 nM.
Sequence SMYGKAFNHA has an IC50 of 163 nM.
Work on SMYVIPDELI yielded an IC50 of 1740 nM.
SQFSYKELYV was tested, and the IC50 was 634 nM.
STDQDTMLFA was tested, and the IC50 was 1550 nM.
STISWMMKL showed an IC50 of 0.23 nM.
With STSPTRTWKV the IC50 was 131 nM.
For STTENAAYQV, the IC50 was 15 nM.
Work on STYPGNTFV yielded an IC50 of 0.24 nM.
In the case of SVDVDIYDAV, the IC50 is reported as 0.25 nM.
SVIFYFISI showed an IC50 of 1.7 nM.
Sequence SVKNLILNFL has an IC50 of 130 nM.
With SVMNFIPII the IC50 was 58 nM.
For TAYIGTSNWT, the IC50 was 555 nM.
TIAGGVCYYL showed an IC50 of 0.13 nM.
In the case of TIAHINTLI, the IC50 is reported as 129 nM.
For TIAVSVYGA, the IC50 was 32 nM.
For TICLKNEGV, the IC50 was 5.8 nM.
Sequence TIDAINKCV has an IC50 of 222 nM.
TIDKSSPLYI gave an IC50 of 1550 nM.
Work on TIDNIVTSL yielded an IC50 of 1860 nM.
For TIFDIVSKCI, the IC50 was 109 nM.
TIGTIAGGV was tested, and the IC50 was 70 nM.
For TIKESLLKET, the IC50 was 296 nM.
TILATLNTLI showed an IC50 of 1470 nM.
For TILDDNLYKV, the IC50 was 1420 nM.
Sequence TINVNSLAL has an IC50 of 1530 nM.
TISGNIYSA gave an IC50 of 11 nM.
With TISGNIYSAL the IC50 was 19 nM.
With TLIQYRQQL the IC50 was 725 nM.
Sequence TLISSDGARV has an IC50 of 542 nM.
TLLGLILFVL was tested, and the IC50 was 720 nM.
Sequence TLLIKTLSPA has an IC50 of 1210 nM.
TLLNETAKV showed an IC50 of 1670 nM.
In the case of TLNTLITLI, the IC50 is reported as 472 nM.
With TLNTLITLIL the IC50 was 1140 nM.
TLPELNLSL gave an IC50 of 309 nM.
TLVKSGLTEV gave an IC50 of 2320 nM.
In the case of TMSIYIAVA, the IC50 is reported as 300 nM.
With TTFITVLTSV the IC50 was 15 nM.
In the case of TTIGTIAGGV, the IC50 is reported as 0.2 nM.
Work on TTLLNETAKV yielded an IC50 of 237 nM.
Sequence TVGMSIVCIV has an IC50 of 220 nM.
Work on TVLTSVDIET yielded an IC50 of 2990 nM.
Sequence TVPTNDHIPV has an IC50 of 57 nM.
TVQEFIFSAL gave an IC50 of 7.8 nM.
Work on VIIMAINVFT yielded an IC50 of 740 nM.
With VIKLVKSLV the IC50 was 640 nM.
VISVIFYFI was tested, and the IC50 was 7.6 nM.

The sequences below were run against HLA-A*02:03 in the same assay as above. Conditions: source organism: Hepacivirus hominis.
SMGNTLTCYV was tested, and the IC50 was 39 nM.
In the case of SMMSFSAAL, the IC50 is reported as 15 nM.
With TLLGCWSFV the IC50 was 41 nM.
TSISGVLWTV was tested, and the IC50 was 27 nM.

Same assay, conditions: source organism: Influenza A virus
SSLENFRAYV was tested, and the IC50 was 1140 nM.
Work on TSFFYRYGFV yielded an IC50 of 451 nM.

Same assay, conditions: source organism: Mammarenavirus brazilense
TSLGLLYTV was tested, and the IC50 was 405 nM.

Same assay, conditions: source organism: Mammarenavirus guanaritoense
TLVDLCFWS showed an IC50 of 524 nM.
TSVDLNAPV was tested, and the IC50 was 841 nM.

Same assay, conditions: source organism: Mammarenavirus whitewaterense
In the case of TVIKTLLEV, the IC50 is reported as 53 nM.

Same assay, conditions: source organism: SARS-CoV1
For SLVKPTVYV, the IC50 was 37 nM.
With TLDAANHSI the IC50 was 283 nM.
Work on TLGVYDYLV yielded an IC50 of 936 nM.
In the case of TLIDFYLCFL, the IC50 is reported as 3.6 nM.
TLLCVLAALV showed an IC50 of 77 nM.
With TMADLVYAL the IC50 was 16 nM.
Work on TQWSLFFFV yielded an IC50 of 540 nM.
Sequence VIADYNYKL has an IC50 of 115 nM.

Same assay, conditions: source organism: Vaccinia virus WR
Work on SLVITYCLVT yielded an IC50 of 566 nM.
For SLVSKHWEL, the IC50 was 36 nM.
In the case of SMSQELAELL, the IC50 is reported as 55 nM.
Work on SMYGKAFNHA yielded an IC50 of 0.93 nM.
SMYVIPDELI was tested, and the IC50 was 114 nM.
For SQFSYKELYV, the IC50 was 27 nM.
STDQDTMLFA was tested, and the IC50 was 4700 nM.
STISWMMKL gave an IC50 of 23 nM.
For STSPTRTWKV, the IC50 was 717 nM.
STTENAAYQV was tested, and the IC50 was 4700 nM.
Work on STYPGNTFV yielded an IC50 of 0.19 nM.
Work on SVDVDIYDAV yielded an IC50 of 9.2 nM.
Work on SVIFYFISI yielded an IC50 of 75 nM.
For SVKNLILNFL, the IC50 was 163 nM.
Sequence SVMNFIPII has an IC50 of 6.3 nM.
In the case of TAYIGTSNWT, the IC50 is reported as 1050 nM.
TIAGGVCYYL was tested, and the IC50 was 34 nM.
For TIAHINTLI, the IC50 was 20 nM.
Sequence TIAVSVYGA has an IC50 of 9.9 nM.
With TICLKNEGV the IC50 was 120 nM.
For TIDAINKCV, the IC50 was 634 nM.
TIDKSSPLYI showed an IC50 of 12 nM.
TIDNIVTSL gave an IC50 of 1040 nM.
TIFDIVSKCI was tested, and the IC50 was 94 nM.
In the case of TIGTIAGGV, the IC50 is reported as 17 nM.
For TIKESLLKET, the IC50 was 149 nM.
TILATLNTLI showed an IC50 of 30 nM.
For TILDDNLYKV, the IC50 was 1630 nM.
For TINVNSLAL, the IC50 was 1540 nM.
With TISGNIYSA the IC50 was 19 nM.
Sequence TISGNIYSAL has an IC50 of 89 nM.
With TLIQYRQQL the IC50 was 410 nM.
For TLISSDGARV, the IC50 was 133 nM.
For TLLGLILFVL, the IC50 was 796 nM.
TLLIKTLSPA was tested, and the IC50 was 1.2 nM.
Sequence TLLNETAKV has an IC50 of 83 nM.
TLNTLITLI showed an IC50 of 0.6 nM.
In the case of TLNTLITLIL, the IC50 is reported as 7.1 nM.
Work on TLPELNLSL yielded an IC50 of 23 nM.
With TLVKSGLTEV the IC50 was 2.9 nM.
TMSIYIAVA was tested, and the IC50 was 41 nM.
For TTFITVLTSV, the IC50 was 16 nM.
With TTIGTIAGGV the IC50 was 43 nM.
With TTLLNETAKV the IC50 was 0.17 nM.
TVGMSIVCIV showed an IC50 of 468 nM.
TVLTSVDIET was tested, and the IC50 was 915 nM.
Work on TVPTNDHIPV yielded an IC50 of 1890 nM.
Sequence TVQEFIFSAL has an IC50 of 90 nM.
VIIMAINVFT showed an IC50 of 820 nM.
With VIKLVKSLV the IC50 was 126 nM.
VISVIFYFI gave an IC50 of 729 nM.

Each sequence was assayed against HLA-A*02:02 in the same assay as above. Conditions: source organism: Hepacivirus hominis.
SMGNTLTCYV was tested, and the IC50 was 44 nM.
SMMSFSAAL showed an IC50 of 5.1 nM.
TLLGCWSFV showed an IC50 of 87 nM.
With TSISGVLWTV the IC50 was 8.1 nM.

Same assay, conditions: source organism: Influenza A virus
Work on SSLENFRAYV yielded an IC50 of 204 nM.
For TSFFYRYGFV, the IC50 was 1100 nM.

Same assay, conditions: source organism: Mammarenavirus brazilense
TSLGLLYTV showed an IC50 of 934 nM.

Same assay, conditions: source organism: Mammarenavirus guanaritoense
In the case of TLVDLCFWS, the IC50 is reported as 58 nM.
Sequence TSVDLNAPV has an IC50 of 65 nM.

Same assay, conditions: source organism: Mammarenavirus whitewaterense
Sequence TVIKTLLEV has an IC50 of 2020 nM.

Same assay, conditions: source organism: SARS-CoV1
In the case of SLVKPTVYV, the IC50 is reported as 108 nM.
TLDAANHSI was tested, and the IC50 was 92 nM.
Work on TLGVYDYLV yielded an IC50 of 0.25 nM.
TLIDFYLCFL was tested, and the IC50 was 0.041 nM.
Sequence TLLCVLAALV has an IC50 of 4.6 nM.
Work on TMADLVYAL yielded an IC50 of 0.18 nM.
TQWSLFFFV showed an IC50 of 80 nM.
With VIADYNYKL the IC50 was 0.48 nM.

Same assay, conditions: source organism: Vaccinia virus WR
SLVITYCLVT was tested, and the IC50 was 286 nM.
SLVSKHWEL showed an IC50 of 1.2 nM.
Work on SMSQELAELL yielded an IC50 of 6.2 nM.
For SMYGKAFNHA, the IC50 was 6.6 nM.
SMYVIPDELI was tested, and the IC50 was 31 nM.
SQFSYKELYV showed an IC50 of 14 nM.
In the case of STDQDTMLFA, the IC50 is reported as 646 nM.
Sequence STISWMMKL has an IC50 of 92 nM.
STSPTRTWKV gave an IC50 of 397 nM.
STTENAAYQV was tested, and the IC50 was 928 nM.
STYPGNTFV showed an IC50 of 11 nM.
Work on SVDVDIYDAV yielded an IC50 of 0.43 nM.
SVIFYFISI gave an IC50 of 155 nM.
SVKNLILNFL showed an IC50 of 1040 nM.
SVMNFIPII was tested, and the IC50 was 13 nM.
Work on TAYIGTSNWT yielded an IC50 of 1760 nM.
